Data taken from patent publication US20230235334A1.

Biological target: OmpR fused to the VP64 activation domain (E. coli)
Test: cell-based or functional assay

EnvZm2 (T247A) (from UniProt A0A4P7TSF2 1-450) (enzyme)
fold-change of OmpR-driven mKate2 median fluorescence output (6xmCMV37 promoter, HEK-293FT cells), EnvZm2 (kinase) against EnvZm1 (D244A phosphatase, SEQ ID NO: 2), at the highest levels of OmpR: 40 fold
fold-change of mKate2 median fluorescence output from the strongest OmpR promoter when the kinase (EnvZm2) or the phosphatase (EnvZm1) was present, HEK-293FT cells: 500 fold
relative kinase strength against EnvZm1 phosphatase, from OmpR-driven mKate2 output in kinase titrations (Open-loop against Const. P), HEK-293FT cells: < 3 fold
